Test results reported in patent US20240238441A1.

What was measured:
[1] = biological target: Coatomer complex of HEK293T cells (Homo sapiens (Human)) (UniProt P53621)
[2] = biological target: Coatomer complex of HEK293T cells (Homo sapiens (Human)) (UniProt P53621); remark: listed apart in the source

Selection pattern Distribution (%), EV Fraction [1]: 83.4%
Wnt7a expression per ug of total protein, EV Fraction (tangential flow filtration) (per ug of total protein) [2]: 0.13
B1: Wnt7a-HA (ligand)
chain: LGASIICNKIPGLAPRQRAICQSRPDAIIVIGEGSQMGLDECQFQFRNGRWNCSALGERTVFGKELKVGSREAAFTYAIIAAGVAHAITAACTQGNLSDCGCDKEKQGQYHRDEGWKWGGCSADIRYGIGFAKVFVDAREIKQNARTLMNLHNNEAGRKILEENMKLECKCHGVSGSCTTKTCWTTLPQFRELGYVLKDKYNEAVHVEPVRASRNKRPTFLKIKKPLSYRKPMDTDLVYIEKSPNYCEEDPVTGSVGTQGRACNKTAPQASGCDLMCCGRGYNTHQYARVWQCNCKFHWCCYVKCNTCSERTEMYTCKYPYDVPDYA
